Laboratory results published in the nanobody polyreactivity screen of Harvey et al. (2022).

Experiment: yeast display, Sf9 membrane polyspecificity reagent, FACS + sequencing; frameworks hold sequencing errors
How it was run: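 Galactose-induced (36–48 hours) yeast carrying a synthetic nanobody display library were exposed to 10% biotinylated, detergent-solubilized Sf9 membrane reagent at 4 °C for 1 hour. FACS followed streptavidin microbead enrichment, using low and high (top ~1%) gates for expression (anti-HA) and reagent binding (streptavidin). Colony PCR, MiSeq 2 × 250 sequencing and CDR-length filtering followed. Labels for polyreactivity reflect the gate of origin.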

Row | Sequence | polyreactivity (PSR sort gate)
1 | QVQLVESGGGLVQAGGSLRLSCAASGFTFYHYAMGWYRQAPGKEREFVAAISASGGSTYYADSVKGRFTISRDNAKNTVYLQMNSLKPEDTAVYYCNARYYYFSVRYKYDFNYWGQVTQVTVSS | high polyreactivity
2 | QVQLVESGGGLVQAGGSLRLSCAASGNAMGWYRPAPGKERELVAAITRRGGSTYYADSVKGRFTISRDNAKNTVYLQMNSLKPEDSAVYYCAADNPSYNLWYGYWGLGTQVTVSS | low polyreactivity
3 | QVQLVESGGGLVQAGGSLRLSCAASGRIFPAYAMGWYRQAPGKERELVAAISWTGTSTYYADSVKGRFTISRDNAKNTVYLQMNSLKPEDTAVYYCAARSYRLRSAYNYWGQGTQVTVSS | high polyreactivity
4 | QVQLVESGGGLVQAGGSLRLSCAASGRTFSAYAMGWYRQAPGKERELVATISRSGGRTYYADSVKGRFTISRDNAKNTVYLQMNSLKPEDTAVYYCNARILRDNQGTYDYWGQGTQVTVSS | high polyreactivity
5 | QVQLVESGGGLVQAGGSLSLSCAASGLNFVKNTMGWYRQAPGKETELVAGISQRGGSTYYADSEKGRFTISRDNAKNTVYLQMNSLKPEETAVYYCAAYSRTFEGHRGGYWGQGTQVTVSS | high polyreactivity
6 | QVQLVESGGGLVQAGGSLRLSCAASGRTFFYYAMGWYRQAPGKERELVAGITKRGGSTYYADSVKGRFTISRDNAKNSVYLQMNSLKPEDSAVYYCAKSFTQSSTDGYWGQGTQVNVSS | high polyreactivity
7 | QVQLVESGGGLVQAGGSLRLRCADSGSIFHCNAMGWNRQAPGKERELVAGITTSGGTTYYADTVKGRFTISRDNAKNTVYVQMKSLKPEATAVYYCAARIIRWRPRWPSYGKYDYWGQVTQVTVSS | low polyreactivity
8 | QVQLVESGGGLVQAGGSLRLSCAASGSIFSFYMGWYRQAPGKERELVAAISSRGGSTYYADSVKGRFTISRDNAKNTVYLQMISLKPEDTAVYYCAAAGGGKVSYRDYDYWGQGTQVTVSS | high polyreactivity
9 | QVQLVESGGGLVQAGGSLRLSCAASGGTFRYNAMGWYRQAPGKERELVAAISSSGGSTYYADSVKGRFTISRDNAKNTVYLQMNSLKPEDTAVYYCAAKRRRYVELDYWGQVTQVTVSS | high polyreactivity
10 | QVQLVESGGGLVQAGGSLRLSCAASGGNFTYNAMGWYRQAPGKERELVASISRGGGSTYYADSVKGRFTISRDNAKNTVYLQMNSLKPEDTAVYYCAASFIVGYYGYDYWGQGTQVTVSS | low polyreactivity
11 | QVQLVESGGGLFQAGGRLRLSCAASGITFVYYAMGWSRQAPGKERELVAAISWGGGSTYYADSVKGRFTISSDNAKNTVYLQMNSLKPEDTAVYYCAADAYVNATPEVSAMGYWGQGTQVTVSS | low polyreactivity
12 | QVQIVESGGGLVQAGGSLRLSCAASRRIFEYYTMGWYRQAPGKERELVARISSGGSTYYADTVKGRFTISRDNAKNSVYLQLNSLLPEDTAVYYCAAGRGYWWWYGYDYWGQGTEVTVSS | low polyreactivity
13 | QVQLVESGGGLVQAGGSLRLSCAASGRTFTLYTMGWYRQAPGKERELVAAIRYSGGSTYYADSVKGRFTISRDNAKNTVYLHMNSLKPEDTAVYYCAARSYYYGFLYRYDYWGQGTQVTVSS | low polyreactivity
14 | QVQLVESGGGLVQAGGSLRLSCASSGSIFSYNAMGWYRQAPGKERELVAAITRSGGSTYYADSVKGRFTISRDNAKNTVYLQMNSLKPEDTAVYYCAVYLPYSQRYVHYYYWGQGTQVTVSS | high polyreactivity
15 | QVQLVESGGGLVQAGGSLRLSCAAYGITFPVNAMGWYRQAPGKERELVAGIYFSGDSTYYADSVKGRFTISRDNAKNTVYLQMKSLKPEDTAVYYCAAEVWAFVYYFEYSTMYYWGHGTQVTVSS | low polyreactivity
16 | QVQLVESGGGLVQAGGSLRLSCAASGSTFNIYVMGWYRQAPGKERELVAAISTSGRTYYADSVKGRFTISRDNAKNTVYLQMNSLKPEDTAVYYCNAGYWVRKYYHGGYWGQGTQVTVSS | high polyreactivity

Row | Sequence | polyreactivity (PSR sort gate)
17 | QVQLVESGGGLVQAGGSLRLSCAASGSTFSLNAMGWYRQAPGKERELVAAISGSGGSTYYADSVKGRFTISRDNAKHTVYLQMNSLKPEDTAVYYCNKYYYPLRKSFGYWGQGTQVTVSS | high polyreactivity
18 | QVQLVESGGGLVQAGGSLRLSCAASGNISPGNVMGWYRQAPGKERELVAAITISGGSTYYADSVKGRFTISRDNAKNTVYLQMNSLKPEDTAVYYCAKRTKFYYTGSGYGKYYYWGQGTQVTVSS | high polyreactivity
19 | QVQLVESGGGLVQAGGSLRLSSAASGFILGYNTMGWYRQAPGKESELVAAINLSGASTYYADSVKGRFTISRDNAKNTVYLQMNSLKPEDTAVYYCGVRFYSGPGGYPTTRYYYWGQGTQVTVSS | high polyreactivity
20 | QVQLVESGGGLVQAGGSLRLSCAASGFTLGYNAMGWYRQAPGKERQLVAGITWSGGSTSYADSVKGRFTISRDNAKNTVYLQMNSLKPEDTAVYYCAKLRRYSGWLPWPYAYDYWGLGTQVTVSS | high polyreactivity
21 | QVQLVESGGGLVQAGVSLRLSCAASGRTFVTYAMGWSREAPGKEKEFVAAISRTGGSTDYADSVKGRFTISRDNAKNTVYLQMNSLKPEETAVYYCATTVIVSPSGYLKSYYWGQGTQVTVSS | high polyreactivity
22 | QVQLVESGGGLVQAGGSLRLTCAASGSTFYRNAMGWYRQAPVKERELVATISSSDGSTYYADSVKGRFTISRDNAKNTVYLQMNSLKPEDTAVYYCATEIYYTKTYDSWGQGTQVTVSS | low polyreactivity
23 | QVQLVESGGGLVQAGGSLRLRCAASGSIFPYNAMGWYRQAPGKERELVAAISKRGRSTYYADSVKGRFTISRDNAKNTVYLHMNSLKPEDTAVYYSAARYPPYRSWYSYDYWGQGTQVTVSS | low polyreactivity
24 | QVQLVESGGGLVQAGGSLRLSCAASGSTFSYNAMGWYRQAPGKERELVAAISRGDVSTYYADSVKGRFTISRDNAKNTVYLQMNSLKPEDSAVYYWAAYWYGSQYKWRYDYWGQGTQGTVSS | low polyreactivity
25 | QVQLVESGGGLVQAGGSLRLSCAASGSTGGYAMGWYRQAPGKERELVARISYSGGSTYYADSVKGRFTISRDNAKNTVYLQMNSLKPEDTAVYYCAARILYRYYYWGQGTQVTVSS | high polyreactivity
26 | QVQLVESGGGLVQAGGSLRLSCAASGRTCGRYAMVLYRQAPGKERELVAAISYSGGSTYYADSVKGRFTISRDNAKNTVYLQMNSLKPEDTAVYYCARYSIFRWTRDEYWGQGTQVTVSS | high polyreactivity
27 | QVQLVESGGGLVQAGGSLRLSCAASGRTFVYYAMGWYRQAPGKERELVAAIRSGGSTNYADSVKGRFTISRDNAKNTVYLQMNSLKPEDTAVYYCNAVHYYYYKGDYWGQGTQVTVSS | high polyreactivity
28 | QVQHVESGGGLVQAGGSLRLSCAASGRIFQRNTMGWYRQAPGKERELVARINYSGGSTYYADSVKGRFTISRDNAKTTVYLQLNSLKPEDTAVYYCAARVWTWSIYYPAGLSSYDYWGQGTQVTVSS | low polyreactivity
29 | QVQLVESGGGLVQAGGSLRLSCAASGIIFDWYAMGWYRQAPGKERELVAAISYSGGTTYYADSVKGRFTISRDNAKNTVYFQMNSLTPEDTAVYYCAARYEGAAANYVEYGYWGLGTQVTVSS | low polyreactivity
30 | QVQLVESGGGLVQAGGSLRLSCAASGSTFYRYTMRWYRQAPGKERELVASIRWTGGRTNYADSVKGRFTISRDNAKNTVYLQMNSLKPEDTAVYYCAAYLKYPYAASYGSWGQGTQVTVSS | high polyreactivity
31 | QVQLVESGGGLVQAGGSLRLICAASGFNLEYYSMGWYRQATGKERELVAVITESDGNTYYPDSVKGRFTISRDTAKNTVYLQMYSLKPEDTALYYCAAPYSFIQGGIRRGYHGYVYWGQGTQVTVSS | low polyreactivity
